{"source": "patent US12479928B2", "about": "“Anti-cancer peptide” (Minerva Biotechnologies Corporation, priority 2014, dated 2025)", "key": {"[1]": {"system": "T47D human breast cancer cells xenografted", "test": "Xenograft of NME7-AB cultured floater cells in nu/nu mice with daily NME7-AB injection", "assay_type": "in vivo, female nu/nu athymic mice", "experimental": "The freshly harvested floater metastatic cells were xenografted into the flank of female nu/nu athymic mice that have been implanted with 90-day slow release estrogen pellets. Floater cells were xenografted with 10,000, 1,000, 100 or 50 cells each. Half of the mice in each group of 6 were also injected daily with 32 nM NME7-AB near the original implantation site. The parent T47D cells that were cultured in RPMI media without NME7-AB were also implanted into mice at 6 million, 10,000 or 100 as controls. Mice implanted with the NME7-induced floater cells developed tumors even when as few as 50 cells were implanted. Mice that were implanted with the floater cells and that received daily injections of NME7-AB also developed remote tumors or remote metastases in various organs (FIG. 20-25). 11 out of the 12 mice, or 92%, that were injected with human NME7-AB after implantation of the NME7-AB cultured cancer cells developed tumors at the injection site. Only 7 out of the 12 mice, or 58%, that were not injected with human NME7-AB after implantation developed tumors. […] None of the mice that were not injected with NME7-AB developed multiple, visible tumors.\nThe freshly harvested floater metastatic cells are xenografted into the flank of female nu/nu athymic mice that have been implanted with 90-day slow release estrogen pellets. Floater cells were xenografted as 10,000, 1,000, 100 or 50 cells each. Half of the mice in each group of 6 were also injected daily with 32 nM NME7-AB near the original implantation site. The parent T47D cells that were cultured in RPMI media without NME7-AB were also implanted into mice as 6 million, 10,000 or 100 as controls. Mice implanted with the NME7-induced floater cells developed tumors even when as few as 50 cells were implanted. Mice that were implanted with the floater cells and that received daily injections of NME7-AB also developed remote tumors or remote metastases in various organs (FIG. 20-25). 11 out of the 12 mice, or 92%, that were injected with human NME7-AB after implantation of the NME7-AB cultured cancer cells, developed tumors at the injection site. Only 7 out of the 12 mice, or 58%, that were not injected with human NME7-AB after implantation developed tumors. 9 out of the 11 mice, or 82%, that got tumors and were injected with human NME7-AB developed multiple tumors remote from the injection site. None of the mice that were not injected with NME7-AB developed multiple, visible tumors."}, "[2]": {"molecular_target": "T1, PSMGFR peptide (MUC1* extracellular domain) (Homo sapiens, UniProt P15941)", "T1 construct": "The PSMGFR peptide bearing a C-terminal Cysteine (PSMGFR-Cys) was covalently coupled to BSA; made in house; host or cells: E. coli (NME7-AB)", "T1 sequence (P15941 1110-1154 limits assumed) 1": "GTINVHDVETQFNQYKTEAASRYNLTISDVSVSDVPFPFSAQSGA", "T1 sequence (Q9Y5B8 92-376 partner limits assumed)": "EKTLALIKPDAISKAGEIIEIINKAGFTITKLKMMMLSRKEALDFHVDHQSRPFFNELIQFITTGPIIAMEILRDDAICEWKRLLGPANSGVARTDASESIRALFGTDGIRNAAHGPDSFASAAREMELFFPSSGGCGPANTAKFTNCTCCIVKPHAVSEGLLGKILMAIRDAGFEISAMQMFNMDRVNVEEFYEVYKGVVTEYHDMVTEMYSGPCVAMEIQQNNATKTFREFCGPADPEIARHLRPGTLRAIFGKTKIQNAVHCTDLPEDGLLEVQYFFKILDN", "T1 sequence (P15941 1110-1154 limits assumed) 3": "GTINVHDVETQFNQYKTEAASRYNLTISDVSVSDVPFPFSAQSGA", "test": "Sandwich ELISA: NME7-AB dimerizes MUC1* extra cellular domain peptide", "assay_type": "binding", "experimental": "The PSMGFR peptide bearing a C-terminal Cysteine (PSMGFR-Cys) was covalently coupled to BSA using Imject Maleimide activated BSA kit (Thermo Fisher). PSMGFR-Cys coupled BSA was diluted to 10 ug/mL in 0.1M carbonate/bicarbonate buffer pH 9.6 and 50 uL was added to each well of a 96 well plate. After overnight incubation at 4° C., the plate was washed twice with PBS-T and a 3% BSA solution was added to block remaining binding site on the well. After 1 h at RT the plate was washed twice with PBS-T and NME7, diluted in PBS-T+1% BSA, was added at different concentrations. After 1 h at RT the plate was washed 3× with PBS-T and anti-NM23-H7 (B-9, Santa Cruz Biotechnology), diluted in PBS-T+1% BSA, was added at 1/500 dilution. […] After 1 h at RT the plate was washed 3× with PBS-T and binding of NME7 was measured at 415 nm using ABTS solution (Pierce). […]\nAfter 1 h at RT the plate was washed 3× with PBS-T and HisTagged PSMGFR peptide (PSMGFR-His) or biotinylated PSMGFR peptide (PSMGFR-biotin), diluted in PBS-T+1% BSA, was added at different concentration. […] After 1 h at RT the plate was washed 3× with PBS-T and binding of PSMGFR peptide to NME7 already bound to another PSMGFR peptide (which could not signal by anti-His antibody or by streptavidin) coupled BSA was measured at 415 nm using a ABTS solution (Pierce)."}, "[3]": {"system": "MDA-MB breast cancer cell line", "test": "RT-PCR of metastatic markers after culture in NME7-AB, MDA-MB", "assay_type": "cell-based, human", "conditions": "serum-free media containing NME7-AB", "experimental": "FIGS. 37A-37C show graphs of RT-PCR measurements of metastatic markers in cancer cells after being cultured in a serum-free media containing NME7-AB compared to the standard media.\n(§1) Ovarian cancer cells, pancreatic cancer cells and melanoma cells were also cultured in NME7-AB and were transformed to a more metastatic state after as few as 3 days in culture."}, "[4]": {"system": "DU145 prostate cancer cells", "test": "RT-PCR of CSC markers after culture in NME7-AB, DU145", "assay_type": "cell-based, human", "experimental": "FIG. 13 is a graph of RT-PCR measurements of gene expression for a variety of stem and putative cancer stem cell markers for DU145 prostate cancer cells. Cells were cultured either in traditional media or a media containing NME1 dimers (“NM23”) or NME7 (NME7-AB). Rho kinase inhibitor was not used because by passage 2, cells remained adherent.\nas §1"}}, "note": "Several values for one entry are separate records, joined by “and”; a condition that tells them apart may be missing. Identical values can stand only once.", "data": [{"molecule": "NME7-AB: recombinant human NME7 devoid of the DM10 domain, NDPK A and B domains, about 33 kDa monomer (protein) MEKTLALIKPDAISKAGEIIEIINKAGFTITKLKMMMLSRKEALDFHVDHQSRPFFNELIQFITTGPIIAMEILRDDAICEWKRLLGPANSGVARTDASESIRALFGTDGIRNAAHGPDSFASAAREMELFFPSSGGCGPANTAKFTNCTCCIVKPHAVSEGLLGKILMAIRDAGFEISAMQMFNMDRVNVEEFYEVYKGVVTEYHDMVTEMYSGPCVAMEIQQNNATKTFREFCGPADPEIARHLRPGTLRAIFGKTKIQNAVHCTDLPEDGLLEVQYFFKILDN", "values": [{"measurement": "number of implanted NME7-induced floater cells that developed tumors", "setting": "[1]; cells pre-cultured in NME7-AB", "result": "≤ 50", "unit": "cells"}, {"measurement": "mice that developed tumors at the injection site", "setting": "[1]; injected daily with 32 nM NME7-AB, 11 out of 12 mice", "result": 92, "unit": "%"}, {"measurement": "mice that developed multiple tumors remote from the injection site", "setting": "[1]; injected daily with NME7-AB, 9 out of 11 mice with tumors", "result": "82% and 80%"}, {"measurement": "engraftment rate of cancer cells cultured in NME7-AB", "setting": "[1]; xenografted into test animals", "result": "over 90%"}, {"measurement": "simultaneous binding of PSMGFR peptides", "setting": "[2]", "result": "simultaneously binds to two PSMGFR peptides"}, {"measurement": "metastatic marker expression after culture in NME7-AB", "setting": "[3]", "result": "increased expression of metastatic markers CDH1 aka E-cadherin and SOX2"}, {"measurement": "CSC marker expression after culture in NME7-AB", "setting": "[4]", "result": "dramatic increases in expression of CSC markers"}]}]}
